Source: PMC5824358

Molecular target: T1, 65K C-RRM WT untagged (UniProt Q96LT9 381-516)
T1 sequence: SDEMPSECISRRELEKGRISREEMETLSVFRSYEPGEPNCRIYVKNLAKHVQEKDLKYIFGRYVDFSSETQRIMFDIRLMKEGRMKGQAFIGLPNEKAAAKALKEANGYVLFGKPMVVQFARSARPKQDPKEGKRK
Test: NMR chemical shift perturbation

B1: U12 oligo (structured_RNA)
RNA: CCCGCCUACUUUGCGGG
binding result: binds
